The supplement of paper PMC12042874
± gives the uncertainty stated by the source.

Experiment: amyloid nucleation score (Sup35N fusion, yeast selection) (log enrichment); library NNK3; higher = more nucleation; inactive = no reads after selection
In short: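 Plasmid inserts were Illumina-sequenced at input and output from psi-negative yeast expressing Sup35N fused to peptides of 20 random codons. The yeast were induced with 100 μM copper sulfate for 24 hours and grown 7 days at 30°C on medium lacking adenine and uracil, and sequences with under 100 input reads were excluded. Nucleation score is the DiMSum log enrichment of output over input reads, centred on the mode score of non-aggregating sequences.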

Row | Substance | amyloid nucleation score
1 | KTQDKITGFLTVLWLRKLVP | inactive
2 | RSDLCFC | inactive
3 | VCTKWGQYFCPYPVLCGWVR | inactive
4 | LYFSNRTIKEYIVN | inactive
5 | AAMKGKSTHPHKGSFSLAIA | inactive
6 | DKMKQKAQKVEDLHMAIGDD | inactive
7 | HVFYIVYSFISLRNHVAYLS | inactive
8 | DYDGWESCFHFS | inactive
9 | LTDRDDDSTHVRSPYSRLLW | inactive
10 | YFATRDFAWVFENGSIEGAT | inactive
11 | NCTFAGLAMFGNILN | inactive
12 | AVTDLDIFICSG | inactive
13 | YLYCRAWIWLDNSMLSWS | inactive
14 | NKVTLGYMFITSLVRTSS | 0.491 ± 0.15
15 | HVAKVGTFNWTHNGYDNCFV | inactive
16 | DVEFI | inactive
17 | WVYNGIIYGRLFMDLLWTGL | inactive
18 | LQVVNLSR | inactive
19 | TGILRNFSCFSFWFWVIRIT | 1.46 ± 0.097
20 | MRLVACA | inactive
21 | SNFLGNQRMLRSAQIPRMRL | inactive
22 | LFQKKFILQVYNCLFSYYFN | 1.18 ± 0.096
23 | CNVIE | inactive

Row | Substance | amyloid nucleation score
24 | SFTMMRSFSA | inactive
25 | WRPFWYIGFHVNVTRG | inactive
26 | YYFRRWGHS | inactive
27 | DCARFILIT | inactive
28 | PGSHNS | inactive
29 | FWFHLADMVECKCIDVLYYL | inactive
30 | RHAPNVLKYLAHFNDYRQWH | inactive
31 | GLTFCATRCRDWLEGWQY | inactive
32 | LICVYVWVHCLMNPYHAINR | 0.199 ± 0.16
33 | SSGHMICIYYQLVHIIVRLC | inactive
34 | SPICNEEYNNVDTCILWGYF | inactive
35 | YSNWKLRRRCYLRDNIFWVI | inactive
36 | GRCNLGSMNNWFKLPLKSVR | inactive
37 | TYLGDSFSILHLIQGDWFIE | inactive
38 | IWVWVWSYWGRNFLSLVRFV | inactive
39 | QWKPWDNTAVGMLPAWIWVD | inactive
40 | NSVVF | inactive
41 | CVFLKKPEKMQLLASSFNS | inactive
42 | PTVQCC | inactive
43 | FIVDVYICAVSLLVGFLDAE | inactive
44 | LTSCTATLCICCSRVVTVEI | 1.24 ± 0.082
45 | VVMWAPLRYDFKSKDRAVES | inactive
46 | LIAYRVGHSGSAQYSSTCGW | 1.04 ± 0.13

Row | Substance | amyloid nucleation score
47 | TNNAIGVFSLECIGFPEAGR | inactive
48 | NRKRFGEMNGRNYSVQGGRW | inactive
49 | DVCEGEIYDPDSLKWFYQFL | inactive
50 | QFVASELYVIGFTAVWLGCI | 0.902 ± 0.2
51 | HTVLILVCAFKNAG | inactive
52 | RVMFMASVWSNCGLWSSGTS | 1.39 ± 0.15
53 | LTSLSKSFCNNVHAYSDFLH | inactive
54 | YLVYRNVTMVCPDRQH | 0.375 ± 0.27
55 | LQEGSN | inactive
56 | SSVENFLNVCNHLDES | 0.389 ± 0.25
57 | SACSYYTMHHIFGAMFHN | inactive
58 | VDVCITFCWIARLMV | inactive
59 | NHVILKNFFLMLQCYNFTTM | inactive
60 | KTSINGKADFG | inactive
61 | MHWCN | 0.228 ± 0.82
62 | RFQFIEFSSTVSSGGWTFFI | -0.165 ± 0.39
63 | RPSSVDRLGSRDIRG | -0.413 ± 1.9
64 | SLVIAIHRAFLFMAGRSRVG | inactive
65 | NFTVFYLRC | 1.67 ± 0.12
66 | SRNLPVLTYLFLVKKWEWYP | inactive
67 | VPGMSAVCKMGLLLDVGVHE | inactive
68 | THGREGYASSSSSLGPGSIS | -0.08 ± 0.44
69 | LLVSQLRYYWTATRNKFIF | inactive

Row | Substance | amyloid nucleation score
70 | SSGPLALVL | inactive
71 | NKDWREVCSKLNLGSCPTPE | inactive
72 | MYTQCLVYSR | inactive
73 | IPFNPALLVPRGFGSFIIPA | inactive
74 | PAPMSVFRHVNFFVKFSPSS | inactive
75 | LAPHLSTIMCIEHNS | inactive
76 | AFLACLRLKDLDVVFRSPNR | inactive
77 | RAITSVSYVWTGRCL | 0.803 ± 0.14
78 | MFQGHMSWII | inactive
79 | IFWICWLGFVNCVYTAEIPT | inactive
80 | SSCKWLFTSSHPSHPEAS | inactive
81 | ICLCLHCIYSRSITSAVLSA | inactive
82 | LILSSCVKGPVSCRPM | inactive
83 | VNWRVRWIYSILGKS | inactive
84 | STVFDFSTLNFFCKSCSIFW | 2.22 ± 0.087
85 | FYKRLSMSMIWFLLYLCTDM | inactive
86 | FFEFRSASYWGPSQYRNMCT | inactive
87 | SDRAHGQFFRPGERLPSNPW | -0.069 ± 0.52
88 | ELVYDLDRYDGGLGVKNEEW | inactive
89 | FEWLMGRHLYISLRLHMRRS | inactive
90 | GKYSYLDIPTTIVYMFIH | 1.44 ± 0.14
91 | LCVSCIDSFLGEMVFGLEVI | inactive
92 | WKFWVAC | inactive

Row | Substance | amyloid nucleation score
93 | HMSSLITVS | inactive
94 | SCRWMTMCAINSP | 0.726 ± 0.2
95 | PNALDRIYSG | inactive
96 | FKTCPKCSSSCCIFICPCSV | 0.753 ± 0.25
97 | DCFSKRWLHLFANYSSVSTN | inactive
98 | FRSGSIDCSKLWILFY | inactive
99 | LGIAPDHMSCSGVNRKCGYS | inactive
100 | GGHENKKRYSSRTIGMCVHE | inactive
101 | GSDSVAGHYFSFVYKVIAEF | 0.292 ± 0.3
102 | NVRNLGRSFNWMSSCGNLCD | inactive
103 | MDNLCGVVFCGSWSVVYSAR | 3.35 ± 0.06
104 | PRNRSVGKMLTRINNSFSRA | inactive
105 | DRFEMPDVLWCRDYCNIARS | inactive
106 | AARISRGVPWYGQEMKGRVR | inactive
107 | RGSCEFSSLECDTWSNRPSD | inactive
108 | TCLLRQCWNNVMS | inactive
109 | FDRNSPTVLFRLRWEYF | inactive
110 | WIWLGCPSVMSEEYMSDFHI | inactive
111 | QHYLVYY | inactive
112 | ALMRYVFPKWRDCAAMWDSL | inactive
113 | KLTVMVMQLASLRLAK | -0.158 ± 0.35
114 | DWFSMVSRSGVDLKSVKRFG | inactive
115 | SLNMLDFFYSLFGVCNKTVL | inactive

Row | Substance | amyloid nucleation score
116 | YRYFGTAAMKRICHRNSIVS | inactive
117 | SPQVLDRWDQFKWKFVFRGS | 0.584 ± 0.13
118 | LFLMIFNARNCVRYGIEGPS | inactive
119 | LSFCVVSTGRCAAMEN | inactive
120 | YRSEGSWHDDSQSKKWWSGV | inactive
121 | KLCYNNCVNLLII | 0.716 ± 0.13
122 | PTHLCFLQFTVAIFVSGIRA | 0.851 ± 0.12
123 | TDVVSSVILRYSFFGHVNEF | inactive
124 | HLYLSSVENLKHLFKGVSVH | -0.381 ± 0.9
125 | NVRVFFVSYVL | 0.885 ± 0.11
126 | CGGLHQHNLMRRCRWMKPGE | inactive
127 | TFVVSVMHKCAW | 1.18 ± 0.11
128 | VYDNNYINFRSLLYMTKVSN | inactive
129 | SCLMLSIYSSQTWKSLCGLK | 0.95 ± 0.12
130 | LLIGNY | inactive
131 | PVRIEYQ | inactive
132 | VLFSGFFYLSDNYKLMGFVH | inactive
133 | SFSKLVFR | inactive
134 | IDRSLLSGFSNLHICSICCT | 1.2 ± 0.12
135 | WSFRNVVSVGMWYLCSDRIG | inactive
136 | CFAKCFMKNLRSIGRVFLMG | inactive
137 | FNDYCSIKKSLTKSMYDLNG | inactive
138 | MSRGCCINLTLQIRVFWNTM | inactive

Row | Substance | amyloid nucleation score
139 | ILARYLDIYMSSVPVEWVTK | inactive
140 | TIYNEGCVCKVYKESLGGSA | inactive
141 | SFFTWYTSFSKDDLWSGLTV | inactive
142 | IIKWSCYNLSLYHTKCKDAE | inactive
143 | VRRDLGFFSRNVT | inactive
144 | FKLHIWSS | inactive
145 | FCGNLEATYRSRFRSNAHSA | 0.698 ± 0.3
146 | NWRQNEPYSPGSKSLGWHSF | inactive
147 | QNILLNVIVTRFGSLQWRSE | 1.83 ± 0.056
148 | RNGLSIGVNVGHLT | inactive
149 | RCLPMG | inactive
150 | VSNLGCCKALSCGMSYRVCW | inactive
151 | NFLNCVFRYIYD | 2.54 ± 0.067
152 | DYVFPRVYRGS | inactive
153 | LSWRTPISAMFDSWACGGGR | inactive
154 | QNFRFYLTCVSGSGHYRSYT | 1.37 ± 0.093
155 | FKQIVKTSFNLCFFIRCKRT | inactive
156 | FHLYCTIITLACCIMVWNCQ | 1.33 ± 0.14
157 | FMMMYDCNLDCFRHSIEI | inactive
158 | SRSPNFQKFLHCMTTSN | inactive
